What all share (assay): cell-based or functional assay
In assay [1] the target is recombinant Mfa1 protein (rMfa1), full-length Mfa1 of P. gingivalis 33277 with a C-terminal penta-histidine tag (Porphyromonas gingivalis) (UniProt B2RHG1).
Assay [2] concerns the target minor fimbrial antigen Mfa1 of Porphyromonas gingivalis, on intact P. gingivalis ATCC 33277 cells (Porphyromonas gingivalis) (UniProt B2RHG1).
Assay [3] concerns the target T1, minor fimbrial antigen Mfa1 of Porphyromonas gingivalis, on intact P. gingivalis ATCC 33277 cells (Porphyromonas gingivalis, UniProt B2RHG1 50-563).
T1 sequence: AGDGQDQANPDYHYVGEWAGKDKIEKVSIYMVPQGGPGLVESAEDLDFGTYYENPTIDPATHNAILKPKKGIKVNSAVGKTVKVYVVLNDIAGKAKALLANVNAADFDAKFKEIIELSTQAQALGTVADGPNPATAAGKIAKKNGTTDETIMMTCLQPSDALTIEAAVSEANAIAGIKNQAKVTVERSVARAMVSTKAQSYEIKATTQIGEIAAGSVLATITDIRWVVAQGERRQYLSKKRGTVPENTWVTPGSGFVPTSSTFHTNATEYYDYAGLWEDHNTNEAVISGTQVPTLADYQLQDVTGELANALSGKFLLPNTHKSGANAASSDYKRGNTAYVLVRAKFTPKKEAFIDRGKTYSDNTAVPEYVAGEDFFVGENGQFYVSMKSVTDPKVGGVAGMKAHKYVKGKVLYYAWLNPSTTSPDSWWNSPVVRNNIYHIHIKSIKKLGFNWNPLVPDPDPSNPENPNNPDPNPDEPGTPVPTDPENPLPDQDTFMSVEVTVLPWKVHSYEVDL

Sequence of recombinant Mfa1 protein (rMfa1), full-length Mfa1 of P. gingivalis 33277 with a C-terminal penta-histidine tag (Porphyromonas gingivalis) (B2RHG1 20-563, tags left off): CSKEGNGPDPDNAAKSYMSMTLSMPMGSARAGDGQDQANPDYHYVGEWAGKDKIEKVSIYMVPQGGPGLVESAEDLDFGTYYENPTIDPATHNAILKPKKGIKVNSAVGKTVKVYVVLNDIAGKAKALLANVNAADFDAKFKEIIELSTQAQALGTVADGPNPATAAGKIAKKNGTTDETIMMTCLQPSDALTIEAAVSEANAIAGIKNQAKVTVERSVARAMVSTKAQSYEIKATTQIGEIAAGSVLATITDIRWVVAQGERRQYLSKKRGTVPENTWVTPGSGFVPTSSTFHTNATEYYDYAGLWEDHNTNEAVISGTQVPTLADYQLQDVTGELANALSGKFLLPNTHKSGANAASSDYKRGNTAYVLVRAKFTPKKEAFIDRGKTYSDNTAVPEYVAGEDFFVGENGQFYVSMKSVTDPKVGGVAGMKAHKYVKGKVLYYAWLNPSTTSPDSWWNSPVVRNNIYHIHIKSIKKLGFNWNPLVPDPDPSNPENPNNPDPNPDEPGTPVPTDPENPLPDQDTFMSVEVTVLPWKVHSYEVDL

In the case of “BAR peptide (SspB Adherence Region), synthetic peptide comprising residues 1167 to 1193 of the SspB (antigen I/II) protein of S. gordonii”, in assay [1], the relative density (R.D.) of remaining BAR peptide after 5 minutes with P. gingivalis SMF1 and rMfa1 (relative density) is 47.3; the relative density (R.D.) of remaining BAR peptide after 30 minutes with P. gingivalis SMF1 and rMfa1 (relative density) turned out to be 8.2.
Molecule “BAR-XI, BAR analog in which the positively charged Lys residues flanking VXXLL were altered to Asp (peptide)” showed an inhibition of biofilm formation in assay [2] of 40%.
With “BAR-X, BAR analog in which the internal variable residues in VXXLL were altered to Pro and Gly (VPGLL) (peptide)”, the inhibition of biofilm formation at 3.38 µM peptide in assay [2] was found to be 15%.
“BAR-III, cyclic conformationally constrained disulfide bridged BAR peptide with Cys substituted for Leu1177 and Leu1191” showed a specific activity of biofilm inhibition against BAR (fold less than BAR) in assay [2] of 13.
In assay [2], “BAR-II, derivative of the BAR peptide containing the Arg/Asn1182 and Ile/Val1185 substitutions” returned an I50 of inhibition of P. gingivalis adherence and biofilm formation of 0.52 µM; a fold difference of I50 against BAR of 2.5 fold; an inhibition of adherence and formation of P. gingivalis microcolonies on the streptococcal substrate at 0.34 µM peptide of 25%; an inhibition of adherence and formation of P. gingivalis microcolonies on the streptococcal substrate at 0.85 µM peptide of 82%.

B1: BAR peptide (SspB Adherence Region), synthetic peptide comprising residues 1167 to 1193 of the SspB (antigen I/II) protein of S. gordonii (peptide)
peptide: LEAAPKKVQDLLKKANITVKGAFQLFS
Regarding B1, in assay [3], the “% inhibition of microcolony formation relative to 0 µM, 0.169 µM BAR, with pepstatin A” value was 19.9%; the “% inhibition of microcolony formation relative to 0 µM, 0.169 µM BAR, without pepstatin A” value worked out at 4.99%; the “% inhibition of microcolony formation relative to 0 µM, 0.338 µM BAR, with pepstatin A” value is 44.6%; the “% inhibition of microcolony formation relative to 0 µM, 0.338 µM BAR, without pepstatin A” value came to 18.6%. Also, in assay [3], the “% inhibition of microcolony formation relative to 0 µM, 0.845 µM BAR, with pepstatin A” value was found to be 67.7%; the “% inhibition of microcolony formation relative to 0 µM, 0.845 µM BAR, without pepstatin A” value was 42.5%; the “% inhibition of microcolony formation relative to 0 µM, 1.65 µM BAR, with pepstatin A” value was 97.8%; the “% inhibition of microcolony formation relative to 0 µM, 1.65 µM BAR, without pepstatin A” value stood at 93.4%.

(Values after patent US20090214603A1 (UNIVERSITY OF LOUISVILLE RESEARCH FOUNDATION, published 2009).)
